The target in experiment [1] is T1, recombinant human GPC3(Q25-H559)-6xHis (human, UniProt P51654 25-559).
T1 construct: range 25-559; also called rhGPC3; RhGPC3
The experiment in a line: BLI (Octet Red96), scFv mFc captured on an AMC biosensor, rhGPC3 lot 2 at a single 500 nM concentration, 1:1 model. In general terms: BLI is a label-free optical method that tracks binding on a fibre tip over time.

Experiment [2] concerns the target human GPC3 (glypican 3), full length, on cells (human) (UniProt P51654). The experiment in a line: cell-based or functional assay.
Experiment [3] concerns the target T2, human GPC5 overexpressed on K562 cells (human) (UniProt P78333).
T2 sequence (looked up): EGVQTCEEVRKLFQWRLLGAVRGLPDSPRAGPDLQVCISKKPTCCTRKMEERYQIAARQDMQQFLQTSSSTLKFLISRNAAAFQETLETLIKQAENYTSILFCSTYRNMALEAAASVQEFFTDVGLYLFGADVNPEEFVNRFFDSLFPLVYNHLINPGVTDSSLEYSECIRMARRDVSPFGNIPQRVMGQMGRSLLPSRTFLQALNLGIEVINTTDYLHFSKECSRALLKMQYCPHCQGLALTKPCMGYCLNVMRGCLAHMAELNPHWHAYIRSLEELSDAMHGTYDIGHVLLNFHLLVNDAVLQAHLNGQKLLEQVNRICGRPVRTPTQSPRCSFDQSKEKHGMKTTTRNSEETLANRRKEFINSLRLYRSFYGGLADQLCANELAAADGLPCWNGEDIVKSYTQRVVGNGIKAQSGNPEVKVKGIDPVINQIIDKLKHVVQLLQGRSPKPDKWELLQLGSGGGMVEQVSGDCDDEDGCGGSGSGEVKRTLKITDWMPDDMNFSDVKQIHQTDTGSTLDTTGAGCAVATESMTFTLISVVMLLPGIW
The experiment can be described thus: cell-based or functional assay.

Experiment [4] addresses mouse GPC3 overexpressed on K562 cells (mouse) (UniProt Q8CFZ4). The experiment can be described thus: cell-based or functional assay.
Experiment [5] has as its target T1, recombinant human GPC3(Q25-H559)-6xHis. The experiment in a line: BLI (Octet Red96), scFv-Fc captured on AMC biosensors, rhGPC3 lot 1 as analyte, 1:1 model, global fit. How it is done:
(§1) A kinetics constant for mAb1-1 scFv mFc binding to its target, GPC3, was determined using a Sartorius Octet Red96 with AMC biosensors. mAb1-1 scFv-Fc was diluted to 2 ug/mL and captured onto 7 AMC biosensor tips under agitation. One biosensor was left blank as a reference. Two lots of recombinant human GPC3(Q25-H559)-6×His (rhGPC3) at 464.3, 154.8, 51.59, 17.2, 5.73, 1.911 and 0 nM were used as analytes. The association phase was measured for 90 sec and the dissociation was measured for 120 sec. All measurements were corrected for baseline drift by subtracting a control sensor exposed to running buffer only. The data were analyzed using a 1:1 interaction model with global fitting for each analyte lot separately, using Octet analysis software.

For experiment [6] the target is unchanged. The experiment can be described thus: BLI (Octet Red96), scFv-Fc captured on AMC biosensors, rhGPC3 lot 2 as analyte, 1:1 model, global fit. How it is done: as §1

Where a chain is given by its changes, count along the chain named.

T1 sequence (P51654 other isoform, or with tags, fused parts or gaps limits assumed, form in doubt): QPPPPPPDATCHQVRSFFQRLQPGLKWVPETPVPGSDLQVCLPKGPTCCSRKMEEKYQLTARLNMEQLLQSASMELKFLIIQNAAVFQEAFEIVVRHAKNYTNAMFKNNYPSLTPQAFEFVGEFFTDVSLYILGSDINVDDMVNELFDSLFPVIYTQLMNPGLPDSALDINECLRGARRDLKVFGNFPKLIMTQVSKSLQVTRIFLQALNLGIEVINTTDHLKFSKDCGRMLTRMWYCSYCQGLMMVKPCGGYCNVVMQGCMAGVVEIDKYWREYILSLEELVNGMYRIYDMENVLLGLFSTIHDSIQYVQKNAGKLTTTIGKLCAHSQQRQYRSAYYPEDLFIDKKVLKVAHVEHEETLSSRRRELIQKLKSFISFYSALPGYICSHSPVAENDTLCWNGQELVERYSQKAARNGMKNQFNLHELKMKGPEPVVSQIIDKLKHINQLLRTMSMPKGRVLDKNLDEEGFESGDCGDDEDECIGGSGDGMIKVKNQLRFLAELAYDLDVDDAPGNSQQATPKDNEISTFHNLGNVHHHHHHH
Sequence of human GPC3 (glypican 3), full length, on cells (human) (P51654 25-554 limits assumed): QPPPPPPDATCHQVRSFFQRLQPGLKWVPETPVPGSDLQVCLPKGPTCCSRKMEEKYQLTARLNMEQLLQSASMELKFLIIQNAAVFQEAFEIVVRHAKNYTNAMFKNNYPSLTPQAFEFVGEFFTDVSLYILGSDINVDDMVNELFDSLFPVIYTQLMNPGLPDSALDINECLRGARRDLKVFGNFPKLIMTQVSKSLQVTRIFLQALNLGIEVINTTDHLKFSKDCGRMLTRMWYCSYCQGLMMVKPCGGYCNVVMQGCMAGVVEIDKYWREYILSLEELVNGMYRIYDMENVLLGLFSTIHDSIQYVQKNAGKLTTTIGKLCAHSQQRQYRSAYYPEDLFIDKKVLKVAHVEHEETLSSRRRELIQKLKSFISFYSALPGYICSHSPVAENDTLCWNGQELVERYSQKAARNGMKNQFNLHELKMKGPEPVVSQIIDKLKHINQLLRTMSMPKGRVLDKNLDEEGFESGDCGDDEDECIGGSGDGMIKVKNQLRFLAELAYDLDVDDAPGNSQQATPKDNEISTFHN
Sequence of mouse GPC3 overexpressed on K562 cells (mouse) (Q8CFZ4 25-579): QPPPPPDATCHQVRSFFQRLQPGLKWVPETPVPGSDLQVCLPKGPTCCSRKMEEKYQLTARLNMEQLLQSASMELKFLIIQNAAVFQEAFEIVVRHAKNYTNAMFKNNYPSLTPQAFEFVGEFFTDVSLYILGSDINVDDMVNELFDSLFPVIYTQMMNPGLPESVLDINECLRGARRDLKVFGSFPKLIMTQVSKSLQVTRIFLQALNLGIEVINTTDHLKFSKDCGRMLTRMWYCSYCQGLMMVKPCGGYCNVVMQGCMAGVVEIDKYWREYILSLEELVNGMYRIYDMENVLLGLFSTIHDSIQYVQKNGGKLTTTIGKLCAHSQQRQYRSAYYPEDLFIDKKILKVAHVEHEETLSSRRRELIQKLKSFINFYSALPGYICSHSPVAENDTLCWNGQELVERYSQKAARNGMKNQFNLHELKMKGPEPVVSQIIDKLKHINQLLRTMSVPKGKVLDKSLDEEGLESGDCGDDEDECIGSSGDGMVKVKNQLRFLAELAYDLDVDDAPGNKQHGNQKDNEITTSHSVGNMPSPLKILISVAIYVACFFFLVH

As for YP7 scFv mFc (Fc fusion), in experiment [1], the dissociation constant Kd (in general, a measure of binding affinity in units of concentration) worked out at 8.73 nM; the koff (in general, the rate constant with which the complex falls apart) stood at 0.000675 s⁻¹; the on-rate (kon) – broadly, the second-order rate constant of association – is 77300 M⁻¹ s⁻¹.

B1: hmAb1-2 CAR (protein, part only; not given: hinge, transmembrane and signaling domains, part only)
chain, part: QVQLVQSGAEVKKPGASVKVSCKASGYTFTDYYIHWVRQAPGQGLEWMGEIYPGSGNTYYAQKFQGRVTMTRDTSTSTVYMELSSLRSEDTAVYYCARGNDYDAWFVYWGQGTLVTVSSGSTSGSGKPGSGEGSTKGDIVMTQSPDSLAVSLGERATINCKSSQSLLNSGTRKNYLAWYQQKPGQPPKLLIYWASIRESGVPDRFSGSGSGTDFTLTISSLQAEDVAVYYCKQSYSLYTFGQGTKLEIK
For B1, in experiment [2], the % cytolysis of Hep3B at 164h, xCELLigence, 500 CAR T cells, Donor 1 stood at 95.7%; the % cytolysis of Hep3B at 164h, xCELLigence, 500 CAR T cells, Donor 2 came to 91.3%; the % dead target cells, flow cytometry, 48h, Hep3B came out at 89.4%. The molecule also showed a % dead target cells, flow cytometry, 48h, K562-human GPC5 in experiment [3] of 18.2%. The % dead target cells, flow cytometry, 48h, K562-mouse GPC3 in experiment [4] amounted to 48.3%.

B2: hmAb1-5 CAR (protein, part only; not given: hinge, transmembrane and signaling domains, part only)
chain, part: B1 chain, part with A24T, M48I, V68A, M70L, R72A, V79A, L83F, A156V, I158M, L221V
For B2, in experiment [2], the % cytolysis of Hep3B at 164h, xCELLigence, 500 CAR T cells, Donor 1 was 99.3%; the % cytolysis of Hep3B at 164h, xCELLigence, 500 CAR T cells, Donor 2 is 95%; the % dead target cells, flow cytometry, 48h, Hep3B amounted to 90.5%. This molecule also gave a % dead target cells, flow cytometry, 48h, K562-human GPC5 in experiment [3] of 18.5%. In experiment [4], the % dead target cells, flow cytometry, 48h, K562-mouse GPC3 turned out to be 52.9%.

B3: mAb1-1_DNR2 CAR (mAb1-1 CAR co-expressed with TGFbDNR2) (protein, part only; not given: CAR signaling domains and DN TGFbR2, part only)
chain, part: B1 chain, part with A24T, R72A, V79A, A156V, I158M, L221V
In experiment [2], B3 showed a % cytolysis, xCELLigence, Hep3B, High E:T (1,000 CAR T cells) of 100%; a % cytolysis, xCELLigence, Hep3B, Low E:T (500 CAR T cells) of 99%; a % cytolysis, xCELLigence, Huh7, High E:T (10,000 CAR T cells) of 100%; a % cytolysis, xCELLigence, Huh7, Low E:T (500 CAR T cells) of 44%. In addition, in experiment [2], the IFNg secretion after 24 h coculture with Hep3B, Luminex, replicate 1 was determined as 37700 pg/mL; the IFNg secretion after 24 h coculture with Hep3B, Luminex, replicate 2 is 39400 pg/mL; the IFNg secretion after 24 h coculture with Hep3B, Luminex, replicate 3 came to 44500 pg/mL.

B4: hmAb1-1 CAR (protein, part only; not given: hinge, transmembrane and signaling domains, part only)
chain, part: B1 chain, part with A24T, R72A, V79A, A156V, I158M, L221V
In the case of B4, in experiment [2], the % cytolysis of Hep3B at 164h, xCELLigence, 500 CAR T cells, Donor 1 was determined as 96.4%; the % cytolysis of Hep3B at 164h, xCELLigence, 500 CAR T cells, Donor 2 turned out to be 93.4%; the % dead target cells, flow cytometry, 48h, Hep3B is 91.1%. In experiment [3], this molecule returned a % dead target cells, flow cytometry, 48h, K562-human GPC5 of 17.7%. In addition, the % dead target cells, flow cytometry, 48h, K562-mouse GPC3 in experiment [4] was 53.9%.

B5: hmAb1-4 CAR (protein, part only; not given: hinge, transmembrane and signaling domains, part only)
chain, part: B1 chain, part with A24T, M48I, V68A, M70L, R72A, V79A, L83F
As for B5, in experiment [2], the % cytolysis of Hep3B at 164h, xCELLigence, 500 CAR T cells, Donor 1 worked out at 94.9%; the % cytolysis of Hep3B at 164h, xCELLigence, 500 CAR T cells, Donor 2 stood at 89.6%; the % dead target cells, flow cytometry, 48h, Hep3B was 89.8%. The molecule further displayed a % dead target cells, flow cytometry, 48h, K562-human GPC5 in experiment [3] of 16.4%. Moreover, the % dead target cells, flow cytometry, 48h, K562-mouse GPC3 in experiment [4] stood at 52.7%.

B6: hmAb1-3 CAR (protein, part only; not given: hinge, transmembrane and signaling domains, part only)
chain, part: B1 chain, part with A24T, R72A, V79A
Take B6: in experiment [2], the % cytolysis of Hep3B at 164h, xCELLigence, 500 CAR T cells, Donor 1 worked out at 97.1%; the % cytolysis of Hep3B at 164h, xCELLigence, 500 CAR T cells, Donor 2 amounted to 89.4%; the % dead target cells, flow cytometry, 48h, Hep3B came to 89.9%. Also, the % dead target cells, flow cytometry, 48h, K562-human GPC5 in experiment [3] was determined as 16.3%. In experiment [4], this molecule came in with a % dead target cells, flow cytometry, 48h, K562-mouse GPC3 of 50.5%.

B7: mAb1-1 scFv-Fc (single chain variable fragment fused to a murine IgG2A fragment crystallizable domain) (Fc fusion)
chain: B1 chain, part with A24T, R72A, V79A, A156V, I158M, L221V
notes: also called mAb1-1 scFv mFc; not shown: murine IgG2A fragment crystallizable (Fc) domain
Consider B7, for which, in experiment [5], the Kd came to 32.7 nM, the off-rate (koff) stood at 0.00712 s⁻¹ and the kon came to 218000 M⁻¹ s⁻¹. Moreover, in experiment [6], the dissociation constant Kd was 35.2 nM, the koff worked out at 0.00785 s⁻¹ and the kon came out at 223000 M⁻¹ s⁻¹.

(Values after US20260242507A1 (KITE PHARMA, published 2026).)
